Laboratory results: article PMC11772155, “Solid-Phase-Supported Chemoenzymatic Synthesis and Analysis of Chondroitin Sulfate Proteoglycan Glycopeptides” (Angewandte Chemie (International ed. in English), 2024)
Peptide text beside a SMILES is read from it. * marks the point of attachment. X4 = O=C(O)[C@H]1O[C@@H](O[C@H]2[C@@H](O)[C@@H](CO)O[C@@H](O[C@H]3[C@@H](O)[C@@H](CO)O[C@@H](O[C@@H]4CO[C@@H](*)[C@H](O)[C@H]4O)[C@@H]3O)[C@@H]2O)[C@H](O)[C@@H](O)[C@@H]1O

Legend:
[1] = target: T1, Human Neutrophil Cathepsin G (Homo sapiens, UniProt P08311); test: BLI (biolayer interferometry) binding assay of immobilized biotinylated compounds with Cathepsin G; conditions: biotinylated compounds immobilized on streptavidin sensors, Cathepsin G at 2000, 1000, 500, 250 nM in PBS containing 0.005% P20, read-out: KD (nM) with Cathepsin G
T1 construct: Human Neutrophil Cathepsin G was purchased from Athens; purchased Athens Research & Technology, Inc. (Athens, Georgia)
T1 sequence (P08311 21-243 limits assumed): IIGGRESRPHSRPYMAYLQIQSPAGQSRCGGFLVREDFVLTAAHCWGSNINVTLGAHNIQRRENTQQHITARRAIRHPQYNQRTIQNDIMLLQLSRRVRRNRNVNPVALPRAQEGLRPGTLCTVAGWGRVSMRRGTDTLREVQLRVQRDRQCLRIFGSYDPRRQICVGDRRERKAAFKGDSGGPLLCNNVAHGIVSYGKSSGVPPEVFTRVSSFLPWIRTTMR
Excerpt: With structurally defined glycopeptides in hand, we aim to better understand the structural features needed for bikunin glycopeptide binding. Cathepsin G (CatG), a neutrophil serine protease, plays a crucial role in regulating various physiological processes, including inflammation, digestion, smooth muscle contraction, and tissue remodeling.[64] While CatG has been reported to interact with CSPG, the structural requirement of CSPG binding has not been established.[25] To measure the binding affinity towards CatG, peptides 5 and glycopeptides 10, 18–21 were biotinylated and immobilized on streptavidin coated sensors for biolayer interferometry (BLI) studies. Biotinylated 50 kDa CS and CS-A were also immobilized on the sensors for comparison. […]
General procedure of glycopeptide biotinylation
To a solution of peptide or glycopeptide in DMSO/H 2O (1/1, 0.1 ml) was added NHS-LC-Biotin (4 equiv.) and diisoproylethylamine (pH ~ 8.5). The reaction was incubated at 37 °C for 2 h. Then the mixture was dried in vacuo and purified by HPLC.
General procedure for BLI binding assay
The binding assay was performed on the Octet K2 System (Pall ForteBio). The biotinylated compounds were incubated with streptavidin (SA) sensors for 2 min. The sensor was then balanced in the assay buffer (PBS containing 0.005% P20) and dipped into Cathepsin G solution in assay buffer at 2000 nM, 1000 nM, 500 nM, 250 nM concentrations.
After 5 min of association, the sensor was brought back to the previous assay buffer for a 5 min dissociation step. At the end of the assay, the sensor was regenerated in 2 M NaCl to remove the bound protein. Each measurement was repeated 3 times on the same sensor. The control assay was performed with another sensor loaded with a 2 mM biotin solution.
Figure S3. Binding of peptide and glycopeptides a) 5, b) 10 , c) 18 , d) 19 , e) 20 , f) 21 , g) commercially available biotinylated 50 kDa CS, and h) 50 kDa CS-A to neutrophil Cathepsin G as measured by BLI ( a-h respectively). The biotinylated compounds (50 nM) were immobilized on streptavidin coated biosensors, and human neutrophil Cathepsin G was captured on biosensors with four concentrations at 2000 nM, 1000 nM, 500 nM, 250 nM.
Fitting curves were shown in red lines. […]

[2] = target: biotinylated non-sulfated chondroitin dodecasaccharide glycopeptide 18 (bikunin); test: BLI; biotinylated peptide or glycopeptides immobilised on streptavidin coated sensors; cathepsin G in solution
[3] = target: biotinylated sulfated 10-mer CS-bearing glycopeptide 20 (bikunin); test: as above
[4] = target: biotinylated sulfated 12-mer CS-bearing glycopeptide 21 (bikunin); test: as above
[5] = target: biotinylated sulfated 8-mer CS-bearing glycopeptide 19 (bikunin); test: as above
[6] = target: biotinylated tetrasaccharide linkage region bearing glycopeptide 10 (bikunin); test: as above

Row | Compound | Kd [1] | Kd [2] | Kd [3] | Kd [4] | Kd [5] | Kd [6]
1 | CC(C)C[C@H](NC(=O)[C@H](CCC(N)=O)NC(=O)CNC(=O)CNC(=O)CNC(=O)[C@H](CO[C@@H]1OC[C@@H](O[C@@H]2O[C@H](CO)[C@H](O)[C@H](O[C@@H]3O[C@H](CO)[C@H](O)[C@H](O[C@@H]4O[C@H](C(=O)O)[C@@H](O)[C@H](O)[C@H]4O)[C@H]3O)[C@H]2O)[C@H](O)[C@H]1O)NC(=O)CNC(=O)[C@H](CCC(=O)O)NC(=O)[C@H](CCC(=O)O)NC(=O)[C@H](CCC(=O)O)NC(=O)[C@H](CCC(N)=O)NC(=O)[C@@H]1CCCN1C(=O)[C@H](CC(C)C)NC(=O)[C@@H](NC(=O)[C@H](C)N)C(C)C)C(=O)N[C@H](C(=O)N[C@H](C(=O)N[C@@H](CCC(=O)O)C(=O)N[C@H](C(=O)N[C@H](C(=O)N[C@@H](CCCCN)C(=O)N[C@@H](CCCCN)C(=O)N[C@@H](CCC(=O)O)C(=O)N[C@@H](CC(=O)O)C(=O)N[C@@H](CO)C(=O)O)[C@@H](C)O)C(C)C)[C@@H](C)O)C(C)C [Compound 10] (H-AVLPQEEEGS(X4)GGGQLVTEVTKKEDS-OH) | 650 ± 80 nM |  |  |  |  | 
2 | Cathepsin G (from UniProt P08311 21-244) (enzyme) |  | 490 nM | 74 nM | 56 nM | 49 nM | 650 nM
3 | CC(=O)N[C@H]1[C@H](O[C@H]2[C@H](O)[C@@H](O)[C@H](O[C@H]3[C@@H](O)[C@@H](CO)O[C@@H](O[C@H]4[C@@H](O)[C@@H](CO)O[C@@H](O[C@@H]5CO[C@@H](OC[C@H](NC(=O)CNC(=O)[C@H](CCC(=O)O)NC(=O)[C@H](CCC(=O)O)NC(=O)[C@H](CCC(=O)O)NC(=O)[C@H](CCC(N)=O)NC(=O)[C@@H]6CCCN6C(=O)[C@H](CC(C)C)NC(=O)[C@@H](NC(=O)[C@H](C)N)C(C)C)C(=O)NCC(=O)NCC(=O)NCC(=O)N[C@@H](CCC(N)=O)C(=O)N[C@@H](CC(C)C)C(=O)N[C@H](C(=O)N[C@H](C(=O)N[C@@H](CCC(=O)O)C(=O)N[C@H](C(=O)N[C@H](C(=O)N[C@@H](CCCCN)C(=O)N[C@@H](CCCCN)C(=O)N[C@@H](CCC(=O)O)C(=O)N[C@@H](CC(=O)O)C(=O)N[C@@H](CO)C(=O)O)[C@@H](C)O)C(C)C)[C@@H](C)O)C(C)C)[C@H](O)[C@H]5O)[C@@H]4O)[C@@H]3O)O[C@@H]2C(=O)O)O[C@H](CO)[C@H](OS(=O)(=O)O)[C@@H]1O[C@@H]1O[C@H](C(=O)O)[C@@H](O[C@@H]2O[C@H](CO)[C@H](OS(=O)(=O)O)[C@H](O[C@@H]3O[C@H](C(=O)O)[C@@H](O[C@@H]4O[C@H](CO)[C@H](OS(=O)(=O)O)[C@H](O[C@@H]5O[C@H](C(=O)O)[C@@H](O[C@@H]6O[C@H](CO)[C@H](O)[C@H](O[C@@H]7O[C@H](C(=O)O)[C@@H](O)[C@H](O)[C@H]7O)[C@H]6NC(C)=O)[C@H](O)[C@H]5O)[C@H]4NC(C)=O)[C@H](O)[C@H]3O)[C@H]2NC(C)=O)[C@H](O)[C@H]1O [Compound 21] | 56 ± 8 nM |  |  |  |  | 
